According to paper PMC1277809:
Like-named read-outs stand apart in the source and are kept apart here.

Key:
Test in all cases: competition EMSA
[1] = biological target: T1, LexA (DinR) wild type (Bacillus subtilis, UniProt P31080 1-205)
T1 sequence: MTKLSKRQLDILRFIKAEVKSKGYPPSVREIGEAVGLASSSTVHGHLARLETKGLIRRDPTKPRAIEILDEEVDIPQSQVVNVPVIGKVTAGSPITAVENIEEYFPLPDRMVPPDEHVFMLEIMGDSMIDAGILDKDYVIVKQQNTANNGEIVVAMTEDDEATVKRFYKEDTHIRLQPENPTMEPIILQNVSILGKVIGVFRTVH

[2] = biological target: T1, LexA (DinR) wild type; remark: listed apart in the source
[3] = biological target: T1, LexA (DinR) wild type; remark: listed apart in the source
[4] = biological target: T1, LexA (DinR) wild type; remark: listed apart in the source
[5] = biological target: T1, LexA (DinR) wild type; remark: listed apart in the source
[6] = biological target: T1, LexA (DinR) wild type; remark: listed apart in the source
[7] = biological target: T1, LexA (DinR) wild type; remark: listed apart in the source
[8] = biological target: T1, LexA (DinR) wild type; remark: listed apart in the source
[9] = biological target: T1, LexA (DinR) wild type; remark: listed apart in the source
[10] = biological target: T1, LexA (DinR) wild type; remark: listed apart in the source
[11] = biological target: T1, LexA (DinR) wild type; remark: listed apart in the source
[12] = biological target: T1, LexA (DinR) wild type; remark: listed apart in the source
[13] = biological target: T1, LexA (DinR) wild type; remark: listed apart in the source
[14] = biological target: T1, LexA (DinR) wild type; remark: listed apart in the source
[15] = biological target: T1, LexA (DinR) wild type; remark: listed apart in the source

B1: recA op T5C,G8A,C9T (preferred) (dsDNA)
DNA 1: GGGGGGCGAACATATGTTCGCCCCCC
DNA 2: GGGGGGCGAACATATGTTCGCCCCCC
B1 was tested, and the Ki [1] was 0.17 nM.

B2: recA op T5C (dsDNA)
DNA 1: GGGGGGCGAACATGCGTTCGCCCCCC
DNA 2: GGGGGGCGAACGCATGTTCGCCCCCC
B2 showed a Ki [2] of 0.22 nM.

B3: recA op C1A,T5C (dsDNA)
DNA 1: GGGGGGAGAACATGCGTTCGCCCCCC
DNA 2: GGGGGGCGAACGCATGTTCTCCCCCC
For B3, the Ki [3] was 0.42 nM.

B4: recA op T5C,A6T (dsDNA)
DNA 1: GGGGGGCGAACTTGCGTTCGCCCCCC
DNA 2: GGGGGGCGAACGCAAGTTCGCCCCCC
In the case of B4, the Ki [4] is reported as 0.49 nM.

B5: recA op T5C,A6C (dsDNA)
DNA 1: GGGGGGCGAACCTGCGTTCGCCCCCC
DNA 2: GGGGGGCGAACGCAGGTTCGCCCCCC
In the case of B5, the Ki [5] is reported as 0.56 nM.

B6: recA op T5C,T7A (dsDNA)
DNA 1: GGGGGGCGAACAAGCGTTCGCCCCCC
DNA 2: GGGGGGCGAACGCTTGTTCGCCCCCC
B6 was tested, and the Ki [6] was 0.62 nM.

B7: recA op C1G,T5C (dsDNA)
DNA 1: GGGGGGGGAACATGCGTTCGCCCCCC
DNA 2: GGGGGGCGAACGCATGTTCCCCCCCC
For B7, the Ki [7] was 1 nM.

B8: recA op G2A,T5C (dsDNA)
DNA 1: GGGGGGCAAACATGCGTTCGCCCCCC
DNA 2: GGGGGGCGAACGCATGTTTGCCCCCC
Work on B8 yielded a Ki [8] of 5.2 nM.

B9: recA op A6G (dsDNA)
DNA 1: GGGGGGCGAATGTGCGTTCGCCCCCC
DNA 2: GGGGGGCGAACGCACATTCGCCCCCC
B9 gave a Ki [9] of 6.4 nM.

B10: recA op T7C (dsDNA)
DNA 1: GGGGGGCGAATACGCGTTCGCCCCCC
DNA 2: GGGGGGCGAACGCGTATTCGCCCCCC
B10 was tested, and the Ki [10] was 7.8 nM.

B11: recA op C1A (dsDNA)
DNA 1: GGGGGGAGAATATGCGTTCGCCCCCC
DNA 2: GGGGGGCGAACGCATATTCTCCCCCC
Work on B11 yielded a Ki [11] of 11.4 nM.

B12: recA op A6T (dsDNA)
DNA 1: GGGGGGCGAATTTGCGTTCGCCCCCC
DNA 2: GGGGGGCGAACGCAAATTCGCCCCCC
B12 gave a Ki [12] of 11.5 nM.

B13: recA op T7A (dsDNA)
DNA 1: GGGGGGCGAATAAGCGTTCGCCCCCC
DNA 2: GGGGGGCGAACGCTTATTCGCCCCCC
B13 gave a Ki [13] of 17.1 nM.

B14: recA op A6C (dsDNA)
DNA 1: GGGGGGCGAATCTGCGTTCGCCCCCC
DNA 2: GGGGGGCGAACGCAGATTCGCCCCCC
With B14 the Ki [14] was 20 nM.

B15: recA op C1G (dsDNA)
DNA 1: GGGGGGGGAATATGCGTTCGCCCCCC
DNA 2: GGGGGGCGAACGCATATTCCCCCCCC
Work on B15 yielded a Ki [15] of 53 nM.
